Measured values published in patent US9823254B2, “Reversible chemoenzymatic labeling of native and fusion carrier protein motifs” (The Regents of the University of California, priority 2012, dated 2017).
“And” between values parts separate entries of the source, which are not always exact repeats. Equal values may be shown once.

How the values were obtained:
G. fujikuroi Pks4 = experiment: AcpH qualitative CP activity, gel-based, crypto-CP; assay type: biochemical; conditions: PKS; crypto-CP (coumarin-PPant), overnight, 37° C., 1 μM AcpH
Protocol: (§1) Unless otherwise noted, all coumarin-PPant labeling proceeded as follows: apo-carrier protein or peptide at 50-200 μM were labeled in 50 mM Na-HEPES pH 7.5, 10 mM MgCl2, 8 mM ATP, 0.1 μM MBP-CoaA/D/E, 0.1 μM native Sfp, and 1.1 equivalents of coumarin-pantetheine at 37° C. overnight. Crypto-protein samples were repurified using standard IMAC techniques in pH 8 lysis buffer with Ni-NTA resin, and spin-concentrated/buffer exchanged to remove imidazole and concentrate with 0.5 mL 3 kDa MWCO cellulose filters. Crypto-peptide samples were purified with HPLC, lyophilized, and redissolved in 50 mM TrisCl pH 8.0 prior to analysis.
(§2) Following AcpH treatment, an equal volume of 2×SDS-PAGE loading dye was added to crypto-carrier proteins samples and heated 5 min at 90° C., and run on 12% or 15% SDS-PAGE. Gels were fixed in 50/40/10% water/methanol/acetic acid for 30 minutes, and washed with water three times before UV imaging. Holo-carrier protein reactions were analyzed with Urea-PAGE as previously described.^6 All protein gels were Coomassie stained for evaluating total protein. Crypto-peptides were evaluated on Urea-PAGE, and were imaged immediately after running with no gel fixing.

V. cholerae VibB = target: T1, V. cholerae VibB (Vibrio cholerae serotype O1, UniProt P0C6D3); conditions: NRPS; crypto-CP (coumarin-PPant), overnight, 37° C., 1 μM AcpH
T1 sequence (P0C6D3 whole entry, looked up): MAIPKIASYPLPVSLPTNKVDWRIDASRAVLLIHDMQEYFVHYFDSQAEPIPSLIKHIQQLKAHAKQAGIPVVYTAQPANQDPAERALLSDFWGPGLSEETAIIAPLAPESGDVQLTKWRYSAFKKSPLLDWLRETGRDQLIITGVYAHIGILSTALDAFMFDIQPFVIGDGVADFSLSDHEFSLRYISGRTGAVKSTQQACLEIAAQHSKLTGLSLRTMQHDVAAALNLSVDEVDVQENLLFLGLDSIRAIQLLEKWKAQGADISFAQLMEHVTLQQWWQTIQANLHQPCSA

M. tuberculosis AcpM = M. tuberculosis AcpM (Mycobacterium tuberculosis, UniProt P9WQF3); conditions: FAS; crypto-CP (coumarin-PPant), overnight, 37° C., 1 μM AcpH
holo-ACP (E. coli) = holo-ACP (E. coli) (Escherichia coli, UniProt P0A6A8); conditions: 37° C., HPLC detection, [AcpH] 1 (CyAcpH 0.005) μm
Protocol: Holo-E. coli AcpP was prepared as a serial dilution in 50 mM TrisCl, 250 mM NaCl, 30 mM MgCl2, and 2 mM MnCl2. […] CyAcpH was prepared at 10 nM in the same AcpH buffer. […] Reactions were transferred to prewarmed shaker at 37° C. and were quenched with 100 mM EDTA after 10 minutes. Samples were centrifuged and evaluated at 210 nm with HPLC using an acetonitrile gradient to determine apo-AcpP product formation. Michaelis-Menten kinetics were calculated using GraphPad Prism (GraphPad Software, La Jolla, Calif.).
E. coli holo-ACP was diluted into 50 mM TrisCl pH 8.0, 250 mM NaCl, 10% glycerol, 30 mM MgCl2 and 2 mM MnCl2 buffer to a concentration of 800 μM. […] AcpH was diluted from MOPS lysis buffer into 50 mM TrisCl pH 8.0, 250 mM NaCl, 10% glycerol and added to an equal volume of the holo-ACP serial dilution to initiate the reaction. Reaction tubes were transferred to a pre-warmed rack at 37° C. and shaken for the duration of the experiment. […] All samples were frozen at -80° C. until evaluated by HPLC.
Kinetics samples were mixed briefly with finger flicking, and centrifuged at 13000 rpm for 10 minutes at room temperature prior to transferring contents into HPLC vials. 20 μL of each reaction time point was injected on an Agilent 1100 series HPLC with column (Burdick & Jackson OD5 #9575, 25 cm×4.6 mm ID) using an acetonitrile/water gradient. Both water and acetonitrile contained 0.05% TFA. Method gradient for each injection: 0-5 min with 10% acetonitrile, 5-30 min with 10-100% acetonitrile, 30-35 min with 100% acetonitrile, 35-37 min with 100-10% acetonitrile, 37-40 min with 10% acetonitrile. HPLC-grade solvents (J. T. Baker, Phillipsburg, N.J.) were used exclusively. Apo- & holo-ACP protein standards were used to validate the retention times identified using 210 nm UV light at approximately 21 and 19 minutes, respectively. Peak integration was performed for all samples, and substrate turnover was calculated from the ratio of apo- to holo-ACP present in the HPLC trace and the known concentration of total ACP in reaction samples. Calculated rates for AcpH versus substrate concentration were obtained through Excel data analysis and graphed in Prism GraphPad using the “Michaelis-Menten” function for enzyme kinetics, with a zero data point added for substrate concentration of 0 μM*min-1 and 0 μM substrate for AcpH graphs.

M. tuberculosis MAS = experiment: AcpH qualitative CP activity, gel-based, crypto-CP; assay type: biochemical; conditions: FAS (FAS/PKS hybrid), overnight, 37° C., 1 μM AcpH
E. coli ACP (AcpP) = E. coli ACP (AcpP) (Escherichia coli, UniProt P0A6A8); conditions: SDS-PAGE
Protocol: 50 mL LB media supplemented with 25 μM calcium D-pantothenate, 50 mM D-glucose, and 50 μg/mL kanamycin utilized previously. Media was inoculated with 1 mL of overnight DK554 starter culture and grown to OD=0.4. IPTG was added at a concentration of 1 mM to the media and was shaken for 5 hours at 37° C. Media was centrifuged at 4000 rpm at 4° C. for 30 minutes to pellet cells. Cell pellets were resuspended in 25 mM TrisCl pH 7.5, 250 mM NaCl, 0.1 mg/mL lysozyme, 10 μM pepstatin, 10 μM leupeptin and passed twice through a French pressure device at 1000 psi. Removal of coumarin-pantetheine from ACP in 5 mL lysate used 10 μM MBP-AcpH fusion in 600 mL AcpH reaction buffer (50 mM TrisCl, pH 8.0, 100 mM NaCl, 10% glycerol, 15 mM MgCl2, 1 mM MnCl2) within a 3 kDa MWCO dialysis bag at 37° C. overnight.
E. coli DK554 cell lysate with total protein concentration of approximately 2 mg/mL was added to the volume of premade 10×PPTase reaction buffer (500 mM Na-HEPES, 100 mM MgCl2, pH 7.4) that brought the total reaction concentration to 50 mM Na-HEPES pH 7.4, 10 mM MgCl2, 5 μM of coumarin-CoA, and 2 μM Sfp. […]

P. agglomerans AdmI = experiment: AcpH qualitative CP activity, gel-based, crypto-CP; assay type: biochemical; conditions: PKS; crypto-CP (coumarin-PPant), overnight, 37° C., 1 μM AcpH
Protocol: (§3) Unless otherwise noted, all coumarin-PPant labeling proceeded as follows: apo-carrier protein or peptide at 50-200 μM were labeled in 50 mM Na-HEPES pH 7.5, 10 mM MgCl2, 8 mM ATP, 0.1 μM MBP-CoaA/D/E, 0.1 μM native Sfp, and 1.1 equivalents of coumarin-pantetheine at 37° C. overnight. Crypto-protein samples were repurified using standard IMAC techniques in pH 8 lysis buffer with Ni-NTA resin, and spin-concentrated/buffer exchanged to remove imidazole and concentrate with 0.5 mL 3 kDa MWCO cellulose filters.
(§4) Following AcpH treatment, an equal volume of 2×SDS-PAGE loading dye was added to crypto-carrier proteins samples and heated 5 min at 90° C., and run on 12% or 15% SDS-PAGE. Gels were fixed in 50/40/10% water/methanol/acetic acid for 30 minutes, and washed with water three times before UV imaging. Holo-carrier protein reactions were analyzed with Urea-PAGE as previously described.^6 All protein gels were Coomassie stained for evaluating total protein.

A. parasiticus PksA = target: T2, A. parasiticus PksA (Aspergillus parasiticus, UniProt Q12053); experiment: AcpH qualitative CP activity, gel-based, crypto-CP; assay type: biochemical; conditions: PKS; crypto-CP (coumarin-PPant), overnight, 37° C., 1 μM AcpH
T2 construct: made in house

P. fluorescens PltL = experiment: AcpH qualitative CP activity, gel-based, crypto-CP; assay type: biochemical
Protocol: as §3, §4

L majuscula JamF = experiment: AcpH qualitative CP activity, gel-based, crypto-CP; assay type: biochemical; conditions: PKS; crypto-CP (coumarin-PPant), overnight, 37° C., 1 μM AcpH
YbbR13 = experiment: AcpH activity with modified ybbR peptide, qualitative; assay type: biochemical; conditions: coumarin-PPant labeled
S. coelicolor ActACP = target: T3, S. coelicolor ActACP (Streptomyces coelicolor, UniProt Q02054); experiment: AcpH qualitative CP activity, gel-based, crypto-CP; assay type: biochemical; conditions: PKS; crypto-CP (coumarin-PPant), overnight, 37° C., 1 μM AcpH
T3 construct: made in house
T3 sequence (Q02054 whole entry, looked up): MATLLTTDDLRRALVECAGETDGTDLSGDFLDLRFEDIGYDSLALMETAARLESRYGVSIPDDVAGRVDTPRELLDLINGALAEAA
Protocol: as §1, §2

crypto-FITC-YbbR (3) = target: T4, crypto-FITC-YbbR (3) (Bacillus subtilis, UniProt O34659); experiment: FRET-quench microwell AcpH kinetics; assay type: biochemical; conditions: 37° C., FRET-quench microwell plate assay, [AcpH] 1 μm
T4 construct: made in house; host or cells: enzymatic labelling of FITC-ybbR peptide with Sfp and rhodamine-CoA
T4 sequence (O34659 whole entry, looked up): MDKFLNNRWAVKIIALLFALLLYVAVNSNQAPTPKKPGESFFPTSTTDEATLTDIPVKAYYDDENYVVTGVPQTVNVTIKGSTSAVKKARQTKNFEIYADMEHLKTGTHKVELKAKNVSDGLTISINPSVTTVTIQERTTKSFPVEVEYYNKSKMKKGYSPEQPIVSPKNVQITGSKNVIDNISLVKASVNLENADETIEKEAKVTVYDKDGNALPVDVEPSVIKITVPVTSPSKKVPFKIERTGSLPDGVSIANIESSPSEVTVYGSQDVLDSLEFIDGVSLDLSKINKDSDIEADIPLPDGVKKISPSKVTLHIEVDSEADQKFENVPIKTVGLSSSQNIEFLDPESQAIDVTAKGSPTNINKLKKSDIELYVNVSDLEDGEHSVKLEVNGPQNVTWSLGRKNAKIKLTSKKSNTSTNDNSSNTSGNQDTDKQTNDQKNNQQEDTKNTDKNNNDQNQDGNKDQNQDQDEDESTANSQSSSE
Protocol: Preparation of rhodamine-labeled FITC-ybbR proceeded via reaction of 200 μM FITC-ybbR with 200 μM rhodamine WT-CoA synthesized as described previously^33 with 1 μM Sfp in 50 mM HEPES pH 7.5 and 10 mM MgCl2 for 2 hours at 37° C.
Rhodamine-labeled FITC-Ybbr as well as standard 1:1 apo-FITC-ybbR:rhodamine-CoA was subjected to an 11-point serial dilution in 50 mM TrisCl pH 8.0 to achieve final concentrations of 400-0.4 μM. […] Total reaction volumes were 50 μL and utilized a 96-well Costar 3694 plate (Corning, Lowell, Mass.). Following mixing, reactions were centrifuged for 2 minutes at 1500 rpm, and incubated at 37° C. over 4 hours in a HTS 7000 plus Bioassay Reader (Perkin Elmer, Waltham, Mass.) in kinetic mode. Comparison of enzyme reactions to buffer blank and 1:1 apo-FITC-ybbR:rhodamine-CoA standard allowed calculation of product formation and determination of Michaelis-Menten kinetics using GraphPad Prism.

A. orientalis CepK = experiment: AcpH qualitative CP activity, gel-based, crypto-CP; assay type: biochemical; conditions: NRPS; crypto-CP (coumarin-PPant), overnight, 37° C., 1 μM AcpH

B1: PaAcpH: acyl carrier protein hydrolase (AcpH) from P. aeruginosa PAO1, NP13 253043.1 (protein)
chain: MNYLAHLHLGGPQPAQLLGSLYGDFVKGRLQGQWPDEIERAIQLHRRIDAFTDSHPLVHAAKRRFPLERRRFAGVLLDVFFDHCLARDWNDYADEPLPQFVERVYGTLRTASPLPERLARIAPRMAAQDWLGSYREFAVLREVLGGMSRRLSRPHLLDGSWEELAQRYDDLSADFRAFYPQLQAFALSQR
AcpH qualitative CP activity (G. fujikuroi Pks4): no
AcpH qualitative CP activity (V. cholerae VibB): no
AcpH qualitative CP activity (M. tuberculosis AcpM): YES
Km (holo-ACP (E. coli)): 12 ± 2 µM
Vmax (holo-ACP (E. coli)): 0.59 ± 0.02 min⁻¹
kcat (holo-ACP (E. coli)): 0.01 s⁻¹ and 0.00983 ± 0.00033 s⁻¹
AcpH qualitative CP activity (M. tuberculosis MAS): no
removal of coumarin-PPT from ACP (E. coli ACP (AcpP); coumarin-labeled E. coli DK554 lysate, 254 nm): uniformly removed
removal of rhodamine label from ACP (E. coli ACP (AcpP); rhodamine-labeled ACP, 532 nm): can also be removed
AcpH qualitative CP activity (P. agglomerans AdmI): no
AcpH qualitative CP activity (A. parasiticus PksA): YES
AcpH activity with PltL (P. fluorescens PltL; NRPS-type PCP, crypto-PltL): partial activity
AcpH qualitative CP activity (P. fluorescens PltL; NRPS, crypto-CP (coumarin-PPant), overnight, 37° C., 1 μM AcpH): YES
AcpH qualitative CP activity (L majuscula JamF): no
AcpH activity with modified ybbR peptide (YbbR13; YbbR13: N-term 6xHis, C-term GFP): no
AcpH activity with modified ybbR peptide (YbbR13; YbbR13: N-term FITC, C-term N/A): no
AcpH activity with modified ybbR peptide (YbbR13; YbbR13: N-term GFP, C-term 6xHis): no
AcpH activity with modified ybbR peptide (YbbR13; YbbR13 free peptide: N-term N/A, C-term N/A): no
AcpH qualitative CP activity (S. coelicolor ActACP): no
Km (crypto-FITC-YbbR (3)): 177 µM
Vmax (crypto-FITC-YbbR (3)): 0.008 ± 0.016 min⁻¹
kcat (crypto-FITC-YbbR (3)): 0.00013 ± 0.000267 s⁻¹
AcpH qualitative CP activity (A. orientalis CepK): no
